In patent US12269859B2, “Synthetic immune receptors and methods of use thereof” (Angeles Therapeutics, Inc., priority 2016, dated 2025):

Test system: target antigen-expressing cell line
Assay: Jurkat NFAT-GFP assay, coculture with target cell lines expressing the respective target antigen (summary Table 10A)
Type: cell-based, human
Design: key: The signs +/−, +, 2+ etc. after the name of the cell lines indicate the relative degree of positivity on the Jurkat-NFAT-GFP assay as measured by the % GFP positive cells; +: relative degree of positivity on the Jurkat-NFAT-GFP assay as measured by the % GFP positive cells; 2+: relative degree of positivity on the Jurkat-NFAT-GFP assay as measured by the % GFP positive cells
Details: relative % GFP positive cells; for NFAT-GFP ASSAY Positive Cell lines: LAN5: SIR-expressing Jurkat-NFAT-GFP cells cocultured with LAN5
Description: (B) Induction of NFAT promoter driven GFP expression. The control vector- and SIR-expressing Jurkat-NFAT-GFP cocultured for 4-24 hours with the target antigen-expressing cell line (described above) and their ability to bind to the target antigen is assayed by measuring induction of GFP expression using Flow Cytometry. Cellular supernatant is collected and assayed for the induction of cytokines (e.g., IL2).
Jurkat NFAT-GFP Assay For Synthetic Immune Receptors. The Jurkat-NFAT-GFP cells are engineered in such a way that the IL-2 promoter, which carries NFAT binding sites, is cloned upstream of the GFP gene. These cells have been used to study signaling via TCR and CAR. The different SIRs were stably expressed in Jurkat NFAT-GFP cells by lentiviral mediated gene transfer, followed by selection with puromycin. The SIR-expressing Jurkat-NFAT-GFP cells were cocultured with the target cells at E:T ratio of approximately 1:2 for approximately 4 hours to 18 hours. When the interaction between SIRs and their target antigen results in activation of the NFAT pathway, GFP expression is induced.
Induction of GFP expression by coculturing of Jurkat-NFAT-GFP cells expressing different SIR constructs and the different target cells was studied essentially as described previously (Wu, Roybal, Puchner, Onuffer, & Lim, 2015). GFP expression was monitored by FACS analysis. A few representative examples of this assay are shown in the FIG. 13A-B. In panel A, control Jurkat-NFAT-GFP cells or those expressing SIRs targeting CD19 (clone ID 051716-I08), MPL (Clone ID: 040716-A07) and BCMA (Clone ID: 011116-A07) were incubated with RAJI (top), HEL (middle) or U266 (bottom) cells, respectively. […] In panel B, Jurkat cells expressing SIR targeting CDH6 (Clone ID: 051716-J05), CD276 (Clone ID: 050516-Q06) and Her2/neu (Clone ID: 050516-I03) were incubated with SKOV3 (top) and […] (middle and bottom) cells, respectively. […] The Jurkat-NFAT-GFP cells were engineered to express different SIRs targeting other antigens and the experiment repeated upon coculture with the target cells expressing their respective target antigen. The Jurkat-NFAT-GFP (parental) cells were used as control. The names of different SIRs, their SEQ ID NOs, component antigen binding domains and TCR chains can be determined by reference to Tables 7A-7H. A SIR is considered positive in the assay in case the SIR expressing Jurkat-NFAT-GFP cells show greater % GFP positive cells when cultured with the target cell line as compared to parental Jurkat-NFAT-GFP cells. […] The signs +/−, +, 2+ etc. after the name of the cell lines indicate the relative degree of positivity on the Jurkat-NFAT-GFP assay as measured by the % GFP positive cells after culture of the SIR expressing Jurkat-NFAT-GFP cells with that cell line. […] In addition, great diversity of response against the same target cell line is observed with Jurkat cells expressing SIRs containing different antigen binding domains targeting the same antigen (e.g., SIRs having antigen binding domains derived form different CD19 antibodies) even when the SIRs share the same TCR chains and linkers. Finally, Jurkat cells expressing SIRs targeting different antigens (e.g. CD19 vs CD20) show a diversitiy of response when exposed to the same target cell line. Thus, a diverse immune response can be generated against a single target cell by combining SIRs with different TCR chains, linkers, antigen binding domains and target specificity. Table 10A also summarizes the results of GLuc based T cell cytotoxicity assay observed with different SIRs when exposed to their target cell lines. […]

Row | Molecule | NFAT-GFP ASSAY Positive Cell lines: LAN5 | NFAT-GFP ASSAY Positive Cell lines: HepG2 (SIR-expressing Jurkat-NFAT-GFP cells cocultured with HepG2)
1 | 042916-D02 (protein, Synthetic Immune Receptor (SIR)) MALPVTALLLPLALLLHAARPLEGKPIPNPLLGLDSTGSGEDLKNVFPPEVAVFEPSKAEIAHTQKATLVCLATGFYPDHVELSWWVNGKEVHSGVCTDPQPLKEQPALNDSRYCLSSRLRVSATFWQNPRNHFRCQVQFYGLSENDEWTQDRAKPVTQIVSAEAWGRADCGITSASYHQGVLSATILYEILLGKATLYAVLVSALVLMAMVKRKDSRGRAKRSGSGATNFSLLKQAGDVEENPGPTSTMALPVTALLLPLALLLHAARPDVQMIQTPSSLSASLGDRVTISCRASQDIGNYLNWYQQKPDGTVKLLIYYTSRLHSGVPSRFSGSGSGTEYSLTISNLEQEDIATYFCQQGSALPPTFGGGTKLEINGGGGSGGGGSGGGGSALQLQQSGAELVRPGASVTLSCKASGYTFTDYEMHWVKQTPVHGLEWIGAIDPETGGTAYNQKFEGKAILTADKSSSTAYMELRSLTSEDSPVYYCARRRYYGSSSFDYWGQGTTLTVSSTREQKLISEEDGSGIQNPDPAVYQLRDSKSSDKSVCLFTDFDSQTNVSQSKDSDVYITDKCVLDMRSMDFKSNSAVAWSNKSDFACANAFNNSIIPEDTFFPSSDVPCDVKLVEKSFETDTNLNFQNLSVIGFRILLLKVAGFNLLMTLRLWSSRAKRSGSGVKQTLNFDLLKLAGDVESNPGPSRGHMTEYKPTVRLATRDDVPRAVRTLAAAFADYPATRHTVDPDRHIERVTELQELFLTRVGLDIGKVWVADDGAAVAVWTTPESVEAGAVFAEIGPRMAELSGSRLAAQQQMEGLLAPHRPKEPAWFLATVGVSPDHQGKGLGSAVVLPGVEAAERAGVPAFLETSAPRNLPFYERLGFTVTADVEVPEGPRTWCMTRKPGA | LAN5 (2+) | –
2 | 051816-Z01 (protein, Synthetic Immune Receptor (SIR)) MALPVTALLLPLALLLHAARPDVQMIQTPSSLSASLGDRVTISCRASQDIGNYLNWYQQKPDGTVKLLIYYTSRLHSGVPSRFSGSGSGTEYSLTISNLEQEDIATYFCQQGSALPPTFGGGTKLEINLEGKPIPNPLLGLDSTGSGEDLKNVFPPEVAVFEPSKAEIAHTQKATLVCLATGFYPDHVELSWWVNGKEVHSGVCTDPQPLKEQPALNDSRYCLSSRLRVSATFWQNPRNHFRCQVQFYGLSENDEWTQDRAKPVTQIVSAEAWGRADCGITSASYHQGVLSATILYEILLGKATLYAVLVSALVLMAMVKRKDSRGRAKRSGSGATNFSLLKQAGDVEENPGPTSMDWIWRILFLVGAATGAHSFEALQLQQSGAELVRPGASVTLSCKASGYTFTDYEMHWVKQTPVHGLEWIGAIDPETGGTAYNQKFEGKAILTADKSSSTAYMELRSLTSEDSPVYYCARRRYYGSSSFDYWGQGTTLTVSSTREQKLISEEDGSGIQNPDPAVYQLRDSKSSDKSVCLFTDFDSQTNVSQSKDSDVYITDKCVLDMRSMDFKSNSAVAWSNKSDFACANAFNNSIIPEDTFFPSSDVPCDVKLVEKSFETDTNLNFQNLSVIGFRILLLKVAGFNLLMTLRLWSSRAKRSGSGVKQTLNFDLLKLAGDVESNPGPSRGHMTEYKPTVRLATRDDVPRAVRTLAAAFADYPATRHTVDPDRHIERVTELQELFLTRVGLDIGKVWVADDGAAVAVWTTPESVEAGAVFAEIGPRMAELSGSRLAAQQQMEGLLAPHRPKEPAWFLATVGVSPDHQGKGLGSAVVLPGVEAAERAGVPAFLETSAPRNLPFYERLGFTVTADVEVPEGPRTWCMTRKPGA | LAN5 (2+) | –
3 | 042916-C05 (protein, Synthetic Immune Receptor (SIR)) MALPVTALLLPLALLLHAARPLEGKPIPNPLLGLDSTGSGEDLKNVFPPEVAVFEPSKAEIAHTQKATLVCLATGFYPDHVELSWWVNGKEVHSGVCTDPQPLKEQPALNDSRYCLSSRLRVSATFWQNPRNHFRCQVQFYGLSENDEWTQDRAKPVTQIVSAEAWGRADCGITSASYHQGVLSATILYEILLGKATLYAVLVSALVLMAMVKRKDSRGRAKRSGSGATNFSLLKQAGDVEENPGPTSTMALPVTALLLPLALLLHAARPDVQMIQTPDSLAVSLGQRATISCRASESVDNYGISFMHWYQQKPGQSPKLLIYRASNLESGIPARFSGSGSRTDFTLTINPVETDDVATYYCQQNNKDPPTFGGGTKLEIKGGGGSGGGGSGGGGSGGGGSQVQLQQSGAELVKPGASVKISCKASGYAFSSYWMNWVKQRPGKGLEWIGQIYPGDGDTTYNGKFKGKATLTADKSSSTVYMQLNSLTSEDSAVYFCVRYYYGSSGYFDYWGQGTTLTVSSTREQKLISEEDGSGIQNPDPAVYQLRDSKSSDKSVCLFTDFDSQTNVSQSKDSDVYITDKCVLDMRSMDFKSNSAVAWSNKSDFACANAFNNSIIPEDTFFPSSDVPCDVKLVEKSFETDTNLNFQNLSVIGFRILLLKVAGFNLLMTLRLWSSRAKRSGSGVKQTLNFDLLKLAGDVESNPGPSRGHMTEYKPTVRLATRDDVPRAVRTLAAAFADYPATRHTVDPDRHIERVTELQELFLTRVGLDIGKVWVADDGAAVAVWTTPESVEAGAVFAEIGPRMAELSGSRLAAQQQMEGLLAPHRPKEPAWFLATVGVSPDHQGKGLGSAVVLPGVEAAERAGVPAFLETSAPRNLPFYERLGFTVTADVEVPEGPRTWCMTRKPGA | LAN5 (+/−) | –
4 | 021317-E02 (protein) MALPVTALLLPLALLLHAARPLEGKPIPNPLLGLDSTGSGEDLKNVFPPEVAVFEPSKAEIAHTQKATLVCLATGFYPDHVELSWWVNGKEVHSGVCTDPQPLKEQPALNDSRYCLSSRLRVSATFWQNPRNHFRCQVQFYGLSENDEWTQDRAKPVTQIVSAEAWGRADCGITSASYHQGVLSATILYEILLGKATLYAVLVSALVLMAMVKRKDSRGRAKRSGSGATNFSLLKQAGDVEENPGPTSMALPVTALLLPLALLLHAARPQSVLTQPPSVSGAPGQRVTISCTGSSSNIGAGYDVHWYQQLPGTAPKLLIFGNSNRPSGVPDRFSGFKSGTSASLAITGLQAEDEADYFCQSYDSSLSGSGVFGTGTKVTVLGGGGGSGGGGSGGGGSQMQLVQSGGGLVQPGRSLRLSCAASGFTFDDYAMHWVRQAPGKGLEWVSGISWNSGSIGYADSVKGRFTISRDNAKNSLYLQMNSLRAEDTALYYCAKDIHSGSYYGLLYYAMDVWGQGTTVTVSSTREQKLISEEDGSGIQNPDPAVYQLRDSKSSDKSVCLFTDFDSQTNVSQSKDSDVYITDKCVLDMRSMDFKSNSAVAWSNKSDFACANAFNNSIIPEDTFFPSSDVPCDVKLVEKSFETDTNLNFQNLSVIGFRILLLKVAGFNLLMTLRLWSSRAKRSGSGVKQTLNFDLLKLAGDVESNPGPSRGHMTEYKPTVRLATRDDVPRAVRTLAAAFADYPATRHTVDPDRHIERVTELQELFLTRVGLDIGKVWVADDGAAVAVWTTPESVEAGAVFAEIGPRMAELSGSRLAAQQQMEGLLAPHRPKEPAWFLATVGVSPDHQGKGLGSAVVLPGVEAAERAGVPAFLETSAPRNLPFYERLGFTVTADVEVPEGPRTWCMTRKPGA | – | HepG2 (+)
